Literature values as cited in PMC3968163.

Molecular target: p53 TAD (Homo sapiens) (UniProt P04637)
Test: ITC

Chain of p53 TAD (Homo sapiens) (P04637 20-73): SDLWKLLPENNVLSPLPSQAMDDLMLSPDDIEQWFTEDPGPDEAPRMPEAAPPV
Chain of Tfb1 PH (P32776 1-115): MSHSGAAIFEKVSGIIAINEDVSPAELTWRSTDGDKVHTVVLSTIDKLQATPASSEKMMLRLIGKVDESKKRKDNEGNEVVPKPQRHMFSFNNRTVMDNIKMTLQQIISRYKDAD

Kd: 400 nM
Substance: Tfb1 PH (from UniProt P32776)
